Experimental data taken from article PMC12708450, “Targeting tumor-infiltrating regulatory T cells: combining CD47 and PD-L1 inhibition via a novel aptamer-siRNA chimera”.

Biological target: PD-L1 (recombinant human) (Homo sapiens, UniProt Q9NZQ7 19-238)
Experiment: ELONA; 1:1 hyperbolic fit; ELONA: PD-L1 coated in PBS at 4 C overnight; blocked with PBS, 0.1% Tween 20, 1% BSA; wash PBS, 1 mM MgCl2, 0.1% Tween 20, 0.1% BSA; oligo heated 95 C 10 min then on ice 10 min; binding 45 min at room temperature; pH not stated
Conditions: protein: recombinant; label: biotin (ELONA)

Sequence of PD-L1 (recombinant human) (Q9NZQ7 19-238): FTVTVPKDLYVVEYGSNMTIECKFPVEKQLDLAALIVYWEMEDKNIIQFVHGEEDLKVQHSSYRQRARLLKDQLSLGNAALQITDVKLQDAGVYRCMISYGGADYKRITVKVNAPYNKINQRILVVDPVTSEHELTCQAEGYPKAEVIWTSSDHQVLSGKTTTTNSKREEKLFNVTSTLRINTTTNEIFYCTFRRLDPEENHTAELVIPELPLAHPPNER

B1: PD-L1 aptamer (structured_DNA)
DNA: ACCGACCGTGCTGGACTCATCTCGCTTTTTTCACGGTCCACACTACTATGAGCGAGCCTGGCG
Kd: 108 nM
